# Target: human FcRn (soluble recombinant, 6XHis, co-expressed with beta2 microglobulin) (human)
# Assay: luminex binding assay, pH 6
# Sequence of human FcRn (soluble recombinant, 6XHis, co-expressed with beta2 microglobulin) (human) (P55899 other isoform, or with tags, fused parts or gaps): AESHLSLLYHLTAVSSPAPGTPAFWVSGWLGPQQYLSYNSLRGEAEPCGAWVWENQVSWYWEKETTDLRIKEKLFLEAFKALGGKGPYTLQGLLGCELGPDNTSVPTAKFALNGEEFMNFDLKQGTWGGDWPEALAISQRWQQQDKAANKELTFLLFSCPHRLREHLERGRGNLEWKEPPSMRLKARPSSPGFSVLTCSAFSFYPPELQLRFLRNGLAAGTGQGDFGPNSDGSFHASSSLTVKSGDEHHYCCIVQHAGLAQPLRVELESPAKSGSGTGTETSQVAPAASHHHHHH
row,Substance,FcRn binding at pH 6 (fold difference vs wild type anti-CD30) (fold vs wild type)
1,anti-CD30 antibody (5F11) Fc variant A378P,0.6
2,anti-CD30 antibody (5F11) Fc variant D376T,1.6
3,anti-CD30 antibody (5F11) Fc variant E345W,1.3
4,anti-CD30 antibody (5F11) Fc variant E356K,1.4
5,anti-CD30 antibody (5F11) Fc variant F404W,1.7
6,anti-CD30 antibody (5F11) Fc variant G446W,1.1
7,anti-CD30 antibody (5F11) Fc variant P247I,1.1
8,anti-CD30 antibody (5F11) Fc variant P396I,1.4
9,anti-CD30 antibody (5F11) Fc variant S254W,0.2
10,anti-CD30 antibody (5F11) Fc variant S354R,1.3
11,anti-CD30 antibody (5F11) Fc variant S426W,0.6
